Test results as given in paper PMC4132724.

T1: Pot1pN (Schizosaccharomyces pombe, UniProt O13988 1-185)
T1 sequence: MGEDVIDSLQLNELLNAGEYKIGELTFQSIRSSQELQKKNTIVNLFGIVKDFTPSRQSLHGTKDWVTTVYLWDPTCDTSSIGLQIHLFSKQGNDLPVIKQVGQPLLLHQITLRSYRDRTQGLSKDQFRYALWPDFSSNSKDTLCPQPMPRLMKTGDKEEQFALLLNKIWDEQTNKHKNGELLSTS


Molecular target: T1, Pot1pN
Assay: EMSA

| Binder | Kd [nM] |
| --- | --- |
| GGTCACGGTCACAGGUTACA (ssDNA, 5-hydroxymethyl-2'-deoxyuridine at position 16 (written U)) [5hmU at T3] | 67 ± 5.6 |
| GGTCACGGTCACAGGTTACA (ssDNA) [20-mer control (GGTTAC)] | 66 ± 5 |
